Test results published in IntAct's records for PubMed 31515488.

B1: Tripartite motif-containing protein 29 (Homo sapiens), Q14134-1 (parent)
chain: MEAADASRSNGSSPEARDARSPSGPSGSLENGTKADGKDAKTTNGHGGEAAEGKSLGSALKPGEGRSALFAGNEWRRPIIQFVESGDDKNSNYFSMDSMEGKRSPYAGLQLGAAKKPPVTFAEKGELRKSIFSESRKPTVSIMEPGETRRNSYPRADTGLFSRSKSGSEEVLCDSCIGNKQKAVKSCLVCQASFCELHLKPHLEGAAFRDHQLLEPIRDFEARKCPVHGKTMELFCQTDQTCICYLCMFQEHKNHSTVTVEEAKAEKETELSLQKEQLQLKIIEIEDEAEKWQKEKDRIKSFTTNEKAILEQNFRDLVRDLEKQKEEVRAALEQREQDAVDQVKVIMDALDERAKVLHEDKQTREQLHSISDSVLFLQEFGALMSNYSLPPPLPTYHVLLEGEGLGQSLGNFKDDLLNVCMRHVEKMCKADLSRNFIERNHMENGGDHRYVNNYTNSFGGEWSAPDTMKRYSMYLTPKGGVRTSYQPSSPGRFTKETTQKNFNNLYGTKGNYTSRVWEYSSSIQNSDNDLPVVQGSSSFSLKGYPSLMRSQSPKAQPQTWKSGKQTMLSHYRPFYVNKGNGIGSNEAP
B2: Hypoxia-inducible factor 1-alpha inhibitor (Homo sapiens), Q9NWT6 (parent)
chain: MAATAAEAVASGSGEPREEAGALGPAWDESQLRSYSFPTRPIPRLSQSDPRAEELIENEEPVVLTDTNLVYPALKWDLEYLQENIGNGDFSVYSASTHKFLYYDEKKMANFQNFKPRSNREEMKFHEFVEKLQDIQQRGGEERLYLQQTLNDTVGRKIVMDFLGFNWNWINKQQGKRGWGQLTSNLLLIGMEGNVTPAHYDEQQNFFAQIKGYKRCILFPPDQFECLYPYPVHHPCDRQSQVDFDNPDYERFPNFQNVVGYETVVGPGDVLYIPMYWWHHIESLLNGGITITVNFWYKGAPTPKRIEYPLKAHQKVAIMRNIEKMLGEALGNPQEVGPLLNTMIKGRYN
B3: Keratin-associated protein 26-1 (Homo sapiens), Q6PEX3 (parent)
chain: MSCPNYCSGNSNSGSLRTSRHIPLTSIDLCPTSVSCGDVLYLPTSSQDHTWVTDNCQETCGEPTSCQPVHCETGNLETSCGSSTAYYVPRPCQGSSFLPASFFSSSCLPVSCRPQRYVSSGCRPLRPLLNSYQPIGDCVPNAYRPQFCLSKSCQPQNLLTSGCQPSSCLAYRPQSLHVVSSSLRPLGPLFSGCQPLTHVFSTCRPSCSGL
B4: Ribose-phosphate pyrophosphokinase 1 (Homo sapiens), P60891 (parent)
chain: MPNIKIFSGSSHQDLSQKIADRLGLELGKVVTKKFSNQETCVEIGESVRGEDVYIVQSGCGEINDNLMELLIMINACKIASASRVTAVIPCFPYARQDKKDKSRAPISAKLVANMLSVAGADHIITMDLHASQIQGFFDIPVDNLYAEPAVLKWIRENISEWRNCTIVSPDAGGAKRVTSIADRLNVDFALIHKERKKANEVDRMVLVGDVKDRVAILVDDMADTCGTICHAADKLLSAGATRVYAILTHGIFSGPAISRINNACFEAVVVTNTIPQEDKMKHCSKIQVIDISMILAEAIRRTHNGESVSYLFSHVPL
partner: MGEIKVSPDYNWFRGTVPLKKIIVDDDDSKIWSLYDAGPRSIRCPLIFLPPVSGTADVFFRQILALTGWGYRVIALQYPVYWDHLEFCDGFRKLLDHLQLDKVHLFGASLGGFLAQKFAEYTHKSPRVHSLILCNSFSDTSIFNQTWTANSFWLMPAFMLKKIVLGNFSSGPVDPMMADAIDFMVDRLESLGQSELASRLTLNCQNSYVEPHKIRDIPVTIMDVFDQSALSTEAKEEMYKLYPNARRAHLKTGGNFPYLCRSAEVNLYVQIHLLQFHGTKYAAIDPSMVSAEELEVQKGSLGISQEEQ

Variants of: B1
Settings: with tri23_human TRIM23, P36406
tri23_human TRIM23, P36406, sequence (P36406 whole entry): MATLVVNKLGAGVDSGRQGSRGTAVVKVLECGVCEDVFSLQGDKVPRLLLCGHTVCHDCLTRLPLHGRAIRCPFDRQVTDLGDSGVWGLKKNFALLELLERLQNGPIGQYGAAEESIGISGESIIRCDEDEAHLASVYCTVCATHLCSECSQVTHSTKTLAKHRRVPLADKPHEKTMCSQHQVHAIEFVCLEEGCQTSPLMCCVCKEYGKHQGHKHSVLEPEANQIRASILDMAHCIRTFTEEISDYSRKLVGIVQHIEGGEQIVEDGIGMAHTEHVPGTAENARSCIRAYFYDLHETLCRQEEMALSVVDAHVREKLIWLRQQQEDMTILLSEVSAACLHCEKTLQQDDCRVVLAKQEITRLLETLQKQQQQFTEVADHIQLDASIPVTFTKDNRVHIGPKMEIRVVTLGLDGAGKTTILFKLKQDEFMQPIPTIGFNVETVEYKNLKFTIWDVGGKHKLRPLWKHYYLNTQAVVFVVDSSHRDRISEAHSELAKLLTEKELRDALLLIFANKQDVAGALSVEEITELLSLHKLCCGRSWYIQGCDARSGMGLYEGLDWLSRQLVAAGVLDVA

Row | effect of a mutation on the interaction | Variant
1 | with no effect | MEAADASRSNGSSPEARDARSPSGPSGSLENGTKADGKDAKTTNGHGGEAAEGKSLGSALKPGEGRSALFAGNEWRRPIIQFVESGDDKNSNYFSMDSMEGKRSPYAGLQLGAAKKPPVTFAEKGELRKSIFSESRKPTVSIMEPGETRRNSYPRADTGLFSRSKSGSEEVLCDSCIGNKQKAVKSCLVCQASFCELHLKPHLEGAAFRDHQLLEPIRDFEARKCPVHGKTMELFCQTDQTCICYLCMFQEHKNHSTVTVEEAKAEKETELSLQKEQLQLKIIEIEDEAEKWQKEKDRIKSFTTNEKAILEQNFRDLVRDLEKQKEEVRAALEQREQDAVDQVKVIMDALDERAKVLHEDKQTREQLHSISDSVLFLQEFGALMSNYSLPPPLPTYHVLLEGEGLGQSLGNFKDDLLNVCMRHVEKMCKADLSRNFIERNHMENGGDHRYVNNYTNSFGGEWSAPDTMKRYSMYLTPKGGVRTSYQPSSPGRFTKETTQKNFNNLYGTKGNYTFRVWEYSSSIQNSDNDLPVVQGSSSFSLKGYPSLMRSQSPKAQPQTWKSGKQTMLSHYRPFYVNKGNGIGSNEAP [S514F]

Variants of: B1
Settings: with cep70_human CEP70, Q8NHQ1
cep70_human CEP70, Q8NHQ1, sequence (Q8NHQ1 whole entry): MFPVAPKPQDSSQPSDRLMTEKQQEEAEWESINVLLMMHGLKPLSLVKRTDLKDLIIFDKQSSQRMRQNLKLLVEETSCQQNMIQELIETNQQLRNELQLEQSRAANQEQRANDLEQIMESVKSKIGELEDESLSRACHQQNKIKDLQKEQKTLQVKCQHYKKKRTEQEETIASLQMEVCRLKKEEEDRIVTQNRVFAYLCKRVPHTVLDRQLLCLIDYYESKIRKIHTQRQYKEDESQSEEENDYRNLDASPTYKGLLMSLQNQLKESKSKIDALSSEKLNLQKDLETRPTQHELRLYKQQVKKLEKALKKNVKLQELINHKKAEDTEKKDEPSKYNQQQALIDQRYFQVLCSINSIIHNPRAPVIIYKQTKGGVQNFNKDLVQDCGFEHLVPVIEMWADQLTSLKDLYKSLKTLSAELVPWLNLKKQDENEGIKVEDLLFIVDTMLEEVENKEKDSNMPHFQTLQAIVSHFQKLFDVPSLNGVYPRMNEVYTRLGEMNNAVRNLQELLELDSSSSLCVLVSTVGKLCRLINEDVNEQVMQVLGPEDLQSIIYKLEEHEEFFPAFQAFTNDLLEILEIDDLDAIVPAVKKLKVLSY

Row | effect of a mutation on the interaction | Variant
2 | disrupting interaction strength | MEAADASRSNGSSPEARDARSPSGPSGSLENGTKADGKDAKTTNGHGGEAAEGKSLGSALKPGEGRSALFAGNEWRRPIIQFVESGDDKNSNYFSMDSMEGKRSPYAGLQLGAAKKPPVTFAEKGELRKSIFSESRKPTVSIMEPGETRRNSYPRADTGLFSRSKSGSEEVLCDSCIGNKQKAVKSCLVCQASFCELHLKPHLEGAAFRDHQLLEPIRDFEARKCPVHGKTMELFCQTDQTCICYLCMFQEHKNHSTVTVEEAKAEKETELSLQKEQLQLKIIEIEDEAEKWQKEKDRIKSFTTNEKAILEQNFRDLVRDLEKQKEEVRAALEQREQDAVDQVKVIMDALDERAKVLHEDKQTREQLHSISDSVLFLQEFGALMSNYSLPPPLPTYHVLLEGEGLGQSLGNFKDDLLNVCMRHVEKMCKADLSRNFIERNHMENGGDHRYVNNYTNSFGGEWSAPDTMKRYSMYLTPKGGVRTSYQPSSPGRFTKETTQKNFNNLYGTKGNYTFRVWEYSSSIQNSDNDLPVVQGSSSFSLKGYPSLMRSQSPKAQPQTWKSGKQTMLSHYRPFYVNKGNGIGSNEAP [S514F]

Variants of: B2
Settings: with asb9_human ASB9, Q96DX5
asb9_human ASB9, Q96DX5, sequence (Q96DX5 whole entry): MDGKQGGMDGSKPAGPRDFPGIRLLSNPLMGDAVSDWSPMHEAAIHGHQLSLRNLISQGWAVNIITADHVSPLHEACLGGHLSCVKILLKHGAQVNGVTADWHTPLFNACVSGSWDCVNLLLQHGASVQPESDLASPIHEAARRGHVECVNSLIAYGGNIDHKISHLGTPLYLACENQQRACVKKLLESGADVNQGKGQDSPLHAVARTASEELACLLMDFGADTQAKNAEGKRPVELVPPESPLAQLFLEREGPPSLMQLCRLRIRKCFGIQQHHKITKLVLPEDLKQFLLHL

Row | effect of a mutation on the interaction | Variant
3 | with no effect | P41A

Variants of: B3
Settings: with grn_human GRN

Row | effect of a mutation on the interaction | Variant
4 | disrupting interaction strength | MSCPNYCSGNSNSGSLRTSRHIPLTYIDLCPTSVSCGDVLYLPTSSQDHTWVTDNCQETCGEPTSCQPVHCETGNLETSCGSSTAYYVPRPCQGSSFLPASFFSSSCLPVSCRPQRYVSSGCRPLRPLLNSYQPIGDCVPNAYRPQFCLSKSCQPQNLLTSGCQPSSCLAYRPQSLHVVSSSLRPLGPLFSGCQPLTHVFSTCRPSCSGL [S26Y]

Variants of: B3
Settings: with ccnjl_human CCNJL

Row | effect of a mutation on the interaction | Variant
5 | with no effect | MSCPNYCSGNSNSGSLRTSRHIPLTYIDLCPTSVSCGDVLYLPTSSQDHTWVTDNCQETCGEPTSCQPVHCETGNLETSCGSSTAYYVPRPCQGSSFLPASFFSSSCLPVSCRPQRYVSSGCRPLRPLLNSYQPIGDCVPNAYRPQFCLSKSCQPQNLLTSGCQPSSCLAYRPQSLHVVSSSLRPLGPLFSGCQPLTHVFSTCRPSCSGL [S26Y]

Variants of: B4
Settings: with spg21_human SPG21, Q9NZD8

Row | effect of a mutation on the interaction | Variant
6 | with no effect | MPNIKIFSGSSHQDLSQKIADRLGLELGKVVTKKFSNQETCVDIGESVRGEDVYIVQSGCGEINDNLMELLIMINACKIASASRVTAVIPCFPYARQDKKDKSRAPISAKLVANMLSVAGADHIITMDLHASQIQGFFDIPVDNLYAEPAVLKWIRENISEWRNCTIVSPDAGGAKRVTSIADRLNVDFALIHKERKKANEVDRMVLVGDVKDRVAILVDDMADTCGTICHAADKLLSAGATRVYAILTHGIFSGPAISRINNACFEAVVVTNTIPQEDKMKHCSKIQVIDISMILAEAIRRTHNGESVSYLFSHVPL [E43D]
7 | with no effect | MPNIKIFSGSSHQDLSQKIADRLGLELGKVVTKKFSNQETCVEIGESVRGEDVYIVQSGCGEINDNLMELLIMINACKIASASRVTAVIPCFPYARQDKKDKSRAPISAKLVANMLSVAGADHIITMDLHASQIQGFFDIPVDNLYAEPAVLKWIRENISEWRNCTIVSPDAGGAKRVTSIAHRLNVDFALIHKERKKANEVDRMVLVGDVKDRVAILVDDMADTCGTICHAADKLLSAGATRVYAILTHGIFSGPAISRINNACFEAVVVTNTIPQEDKMKHCSKIQVIDISMILAEAIRRTHNGESVSYLFSHVPL [D183H]
